Source: publication PMC3234246

How the values were obtained:
[1] = molecular target: cyclophilin A (CypA), human (UniProt P62937); experiment: ITC
[2] = molecular target: Nup358/RanBP2 cyclophilin domain (Nup358Cyp), human (human); experiment: ITC; recombinant CypA or Nup358Cyp against recombinant CA^NTD, without cyclosporine; done as described in ref. 25
[3] = molecular target: cyclophilin A (CypA), human (UniProt P62937); experiment: as above

Chain of cyclophilin A (CypA), human (P62937 whole entry, the tested form may be a part): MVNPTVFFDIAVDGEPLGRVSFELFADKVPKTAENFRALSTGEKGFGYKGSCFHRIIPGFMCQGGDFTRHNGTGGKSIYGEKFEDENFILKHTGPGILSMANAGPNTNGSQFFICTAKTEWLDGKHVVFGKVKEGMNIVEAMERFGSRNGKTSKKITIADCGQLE

Substance | Kd [1] [µM] | other: stoichiometry N [1] | other: ΔH [1] [kcal/mol] | other: ΔS ((cal/mol)/deg) [1] | Kd [2] [µM] | Kd [3] [µM]
HIV-1 NL4.3 capsid N-terminal domain (CA^NTD), wild type P90A | 46 | 0.8 | -2.84 | 9.8 |  | 
HIV-1 NL4.3 capsid N-terminal domain (CA^NTD), wild type (domain or fragment) |  |  |  |  | 16 | 7
HIV-1 capsid N-terminal domain (CA^NTD) mutant N57A (domain or fragment) |  |  |  |  | 55 | 7
HIV-1 NL4.3 capsid N-terminal domain (CA^NTD), wild type N74D |  | 0.8 | -9.8 | -10.3 |  | 
HIV-1 capsid N-terminal domain (CA^NTD) mutant N74D (domain or fragment) |  |  |  |  | 95 | 
